Laboratory results published in US20250277031A1.
Where two headings read alike, the source gives them in different places.

What was measured:
[1] = target: recombinant human CD47 (human) (UniProt Q08722); experiment: ELISA, plate coated with recombinant human CD47, OD450
[2] = target: recombinant human CD47 (human) (UniProt Q08722); experiment: SPR, Biacore X100, antibody captured on Protein A chip, CD47 as analyte
[3] = target: recombinant human CD47-Fc protein (ACROBiosystems, catalog number CD7-H52A5) (human) (UniProt Q08722); experiment: blocking ELISA: plate coated with human CD47-Fc, 2 nM biotin-labelled SIRPα as the blocked ligand, falling OD450 curve; the sheet labels the half-maximal value EC50
[4] = target: recombinant human CD47 (human) (UniProt Q08722); experiment: ELISA, plate coated with 1 µg/mL recombinant human CD47, OD450
[5] = target: recombinant human CD47-Fc protein (ACROBiosystems, catalog number CD7-H52A5) (human) (UniProt Q08722); experiment: blocking ELISA: plate coated with human CD47-Fc, biotin-labelled SIRPα as the blocked ligand, falling OD450 curve; the sheet labels the half-maximal value EC50
[6] = target: recombinant human CD47 (human) (UniProt Q08722); experiment: SPR, Biacore X100, antibody captured on Protein A chip, CD47 as analyte; remark: listed apart in the source

Sequence of recombinant human CD47 (human) (Q08722 19-139 limits assumed): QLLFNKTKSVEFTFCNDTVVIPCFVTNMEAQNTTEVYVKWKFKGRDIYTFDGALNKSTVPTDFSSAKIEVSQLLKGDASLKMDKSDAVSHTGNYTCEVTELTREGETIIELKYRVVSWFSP
Sequence of recombinant human CD47-Fc protein (ACROBiosystems, catalog number CD7-H52A5) (human) (Q08722 19-139 limits assumed): as above

B1: control CC-90002 (a patent sequence from WO2016109415) (antibody, from another filing, V domains shown)
VH: QMQLVQSGAEVKKTGSSVKVSCKASGFNIKDYYLHWVRQAPGQALEWMGWIDPDQGDTEYAQKFQDRVTITRDRSMSTAYMELSSLRSEDTAMYYCNAAYGSSSYPMDYWGQGTTVTV
VL: NIQMTQSPSAMSASVGDRVTITCKASQDIHRYLSWFQQKPGKVPKHLIYRANRLVSGVPSRFSGSGSGTEFTLTISSLQPEDFATYYCLQYDEFPYTFGGGTKVEIK
Binder B1 has an EC50 [1] of 0.033 nM, a Kd [2] of 1.16 nM and a koff [2] of 0.00176 s⁻¹. It also gave a kon [2] of 1.52e+06 M⁻¹ s⁻¹, an IC50 [3] of 1.43 nM and an EC50 [4] of 0.058 nM. For the same binder, the IC50 [5] was 0.774 nM, the Kd [6] was 0.857 nM and the koff [6] was 0.00135 s⁻¹. The kon [6] was 1.57e+06 M⁻¹ s⁻¹.
